Assay results taken from article PMC6667456.

Target: T1, TofR-His (also written His-TofR) (Burkholderia glumae BGR1?) (UniProt A1KWS3)
T1 sequence: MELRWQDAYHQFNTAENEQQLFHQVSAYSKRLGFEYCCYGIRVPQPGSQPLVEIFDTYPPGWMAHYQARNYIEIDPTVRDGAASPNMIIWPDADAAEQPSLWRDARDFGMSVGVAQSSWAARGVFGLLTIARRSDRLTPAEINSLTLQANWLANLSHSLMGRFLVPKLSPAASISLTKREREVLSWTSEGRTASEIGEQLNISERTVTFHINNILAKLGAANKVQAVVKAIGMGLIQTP
Assay: EMSA
Conditions: EMSA: 0.4 nM biotin-DNA, 10 mM Tris-HCl pH 7.5, 10 mM NaCl, 100 mM NaCl (both sic), 0.5 mM EDTA, 1 mM DTT, 5% glycerol, 50 ng/uL poly(dI-dC), 15 min …

## TGGTGTCCTCCAGATATGGGCTGCAGTCGATATGGGCTGCAGTATCGGATCTCGCTTATCATTACTCAAACGAAATTTTCTTGAGTTGAACATGAAAAATATTCAGGTTCACGCTGCTACTGAACGCCGCCATGAATCGCTCGCCGCTTGAGCTGCGCCATCTGCAGACCCTCACGGCGCT (double strand) [metE1 putative promoter region, 181 bp]
  binding: binds
